Like-named read-outs stand apart in the source and are kept apart here.
Columns and labels:
[1] = biological target: T1, human IL-36R (IL1RL2) on primary human cells (human) (UniProt Q9HB29); test: cell-based or functional assay
T1 sequence (looked up): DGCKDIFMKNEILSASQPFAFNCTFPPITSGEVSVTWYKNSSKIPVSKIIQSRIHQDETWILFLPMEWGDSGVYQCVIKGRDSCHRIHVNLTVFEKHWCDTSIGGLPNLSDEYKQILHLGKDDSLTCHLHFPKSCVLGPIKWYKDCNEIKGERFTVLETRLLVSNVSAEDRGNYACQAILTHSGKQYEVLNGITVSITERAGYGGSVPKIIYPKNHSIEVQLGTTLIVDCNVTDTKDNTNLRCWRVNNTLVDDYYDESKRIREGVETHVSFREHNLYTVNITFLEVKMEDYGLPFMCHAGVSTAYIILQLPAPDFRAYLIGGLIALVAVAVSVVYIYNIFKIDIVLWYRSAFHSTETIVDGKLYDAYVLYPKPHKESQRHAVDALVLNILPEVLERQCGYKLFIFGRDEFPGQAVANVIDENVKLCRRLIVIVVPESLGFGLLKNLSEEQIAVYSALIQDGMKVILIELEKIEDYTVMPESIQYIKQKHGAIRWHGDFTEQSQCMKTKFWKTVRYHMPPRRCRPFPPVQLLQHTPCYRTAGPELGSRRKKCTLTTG

[2] = biological target: full-length human IL-36R on cells (human) (UniProt Q9HB29)
[3] = biological target: full-length human IL-36R on cells (human) (UniProt Q9HB29); remark: listed apart in the source
[4] = biological target: Macaca fascicularis IL-36R on cells (Macaca fascicularis); test: cell-based or functional assay
Macaca fascicularis IL-36R on cells (Macaca fascicularis), sequence (chain, as listed by the source): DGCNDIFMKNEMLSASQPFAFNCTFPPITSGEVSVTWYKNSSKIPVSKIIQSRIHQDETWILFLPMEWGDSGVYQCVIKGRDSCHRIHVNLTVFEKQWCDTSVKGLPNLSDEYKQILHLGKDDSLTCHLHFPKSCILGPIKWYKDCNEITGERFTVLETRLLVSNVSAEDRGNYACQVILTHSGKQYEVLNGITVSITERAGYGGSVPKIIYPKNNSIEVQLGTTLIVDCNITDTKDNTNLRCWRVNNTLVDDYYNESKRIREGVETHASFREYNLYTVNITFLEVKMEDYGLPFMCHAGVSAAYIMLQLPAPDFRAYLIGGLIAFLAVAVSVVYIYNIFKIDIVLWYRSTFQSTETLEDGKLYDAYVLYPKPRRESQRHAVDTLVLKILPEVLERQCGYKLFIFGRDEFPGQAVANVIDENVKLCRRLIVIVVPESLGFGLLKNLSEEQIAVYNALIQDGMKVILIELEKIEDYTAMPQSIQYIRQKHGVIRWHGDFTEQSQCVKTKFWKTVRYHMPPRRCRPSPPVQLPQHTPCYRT

[5] = biological target: full-length human IL-36R on cells (human) (UniProt Q9HB29); test: cell-based or functional assay
[6] = biological target: full-length human IL-36R on cells (human) (UniProt Q9HB29); remark: listed apart in the source
[7] = biological target: full-length human IL-36R on cells (human) (UniProt Q9HB29); remark: listed apart in the source

“rhIL-36γ/IL-1F9 [aa18-169] (from UniProt Q9NZH8 18-169) (ligand)” gave an EC50[M], IL-8 production, Intestinal MyoFibroblasts (InMyoFib), hIL-36γ [1] of 1.46e-09 M, an EC50[M], IL-8 production, Normal Epidermal Keratinocytes (NHEK), hIL-36γ [1] of 4e-09 M and an EC50[M], IL-8 production, PB-derived CD14+ Monocytes, hIL-36γ [1] of 2.75e-09 M.
Work on “human IL-36γ (from UniProt Q9NZH8 18-169) (ligand)” yielded an EC50 (read off the curve) of hIL36γ, NFκB-luciferase RLU, in the presence of 0.1 nM REGN6489 [2] of 2 pM, an EC50 (read off the curve) of hIL36γ, NFκB-luciferase RLU, in the presence of 0.3 nM REGN6489 [2] of 8 pM and an EC50 (read off the curve) of hIL36γ, NFκB-luciferase RLU, in the presence of 1 nM REGN6489 [2] of 30 pM. For the same substance, the EC50 (read off the curve) of hIL36γ, NFκB-luciferase RLU, in the presence of 3 nM REGN6489 [2] was 100 pM, the EC50 (read off the curve) of hIL36γ, NFκB-luciferase RLU, in the presence of 9 nM REGN6489 [2] was 300 pM and the EC50 (read off the curve) of hIL36γ, NFκB-luciferase RLU, no antibody [2] was 1 pM. For the same substance, the EC50 (read off the curve) of hIL36γ, NFκB-luciferase RLU, in the presence of 0.3 nM REGN6490 [3] was 4 pM, the EC50 (read off the curve) of hIL36γ, NFκB-luciferase RLU, in the presence of 1 nM REGN6490 [3] was 20 pM and the EC50 (read off the curve) of hIL36γ, NFκB-luciferase RLU, in the presence of 3 nM REGN6490 [3] was 60 pM. For the same substance, the EC50 (read off the curve) of hIL36γ, NFκB-luciferase RLU, in the presence of 9 nM REGN6490 [3] was 200 pM, the EC50 (read off the curve) of hIL36γ, NFκB-luciferase RLU, no antibody [3] was 3 pM and the EC50, NFκB-luciferase, HEK293/NFκB-luc/MfIL-36R cells [4] was 62 pM. It also gave an EC50, NFκB-luciferase, HEK293/NFκB-luc/hIL-36R cells [5] of 8.4 pM.
For “rhIL-36α/IL-1F6 [aa6-158] (from UniProt Q9UHA7 6-158) (ligand)”, the EC50[M], IL-8 production, Intestinal MyoFibroblasts (InMyoFib), hIL-36α [1] was 1.41e-09 M, the EC50[M], IL-8 production, Normal Epidermal Keratinocytes (NHEK), hIL-36α [1] was 1.43e-09 M and the EC50[M], IL-8 production, PB-derived CD14+ Monocytes, hIL-36α [1] was 2.75e-09 M.
Substance “human IL-36α (from UniProt Q9UHA7 6-158) (ligand)” has an EC50 (read off the curve) of hIL36α, NFκB-luciferase RLU, in the presence of 0.1 nM REGN6489 [6] of 40 pM, an EC50 (read off the curve) of hIL36α, NFκB-luciferase RLU, in the presence of 0.3 nM REGN6489 [6] of 200 pM and an EC50 (read off the curve) of hIL36α, NFκB-luciferase RLU, in the presence of 1 nM REGN6489 [6] of 600 pM. It also gave an EC50 (read off the curve) of hIL36α, NFκB-luciferase RLU, in the presence of 3 nM REGN6489 [6] of 2000 pM, an EC50 (read off the curve) of hIL36α, NFκB-luciferase RLU, in the presence of 9 nM REGN6489 [6] of 5000 pM and an EC50 (read off the curve) of hIL36α, NFκB-luciferase RLU, no antibody [6] of 20 pM. For the same substance, the EC50 (read off the curve) of hIL36α, NFκB-luciferase RLU, in the presence of 0.3 nM REGN6490 [7] was 50 pM, the EC50 (read off the curve) of hIL36α, NFκB-luciferase RLU, in the presence of 1 nM REGN6490 [7] was 200 pM and the EC50 (read off the curve) of hIL36α, NFκB-luciferase RLU, in the presence of 3 nM REGN6490 [7] was 700 pM. For the same substance, the EC50 (read off the curve) of hIL36α, NFκB-luciferase RLU, in the presence of 9 nM REGN6490 [7] was 2000 pM, the EC50, NFκB-luciferase, HEK293/NFκB-luc/MfIL-36R cells [4] was 170 pM and the EC50, NFκB-luciferase, HEK293/NFκB-luc/hIL-36R cells [5] was 12 pM.

From patent publication US20200017592A1
